Laboratory results as given in patent publication US5516685A, “Isolation and characterization of a novel protease from Streptomyces lividans” (Amgen Inc., priority 1994, dated 1996).
Read-outs that look alike come from different tables or passages of the source.

Tests used:
Protease X = type: biochemical, Streptomyces lividans; details: for effect of additive on the protease's activity: additive at 20 mM
Description: (§1) The characteristics of the protease reaction catalyzed by this enzyme were determined using the synthetic substrate assay where various synthetic substrates are dissolved at a concentration of 100 mg/ml in dimethylsulfoxide (DMSO). 200 μl aliquots from bacterial culture supernatants were mixed with 780 μl of 5 mM Tris, 25 mM NaCl, pH 7, and incubated at the desired temperature Digestions were then initiated by the addition of 20 μl of substrate and the rate of absorbance at 405 nm was followed for several minutes.
^a The assays were performed for 2 min. at 65° C. at pH 7.5.

[1] = synthetic substrate assay of protease-containing S. lividans (pHL45) broth; type: biochemical; details: for Activity (dA/min): control broth activity subtracted
Description: as §1
Here, the broth from recombinant S. lividans containing pHL45, as well as the broth from an identical S. lividans culture containing a control plasmid only (pIJ699), were compared for proteolytic activity by directly assaying activity in the presence of several different substrates. This experiment was conducted at 37° C. pH 7.0 and 65° C. pH 7 5, in the presence of 10 mM calcium. The substrates tested were: succinyl-ala-ala-pro-phe-pNitroanilide, succinyl-tyr-leu-val-pNitroanilide, ala-pNitroanilide, and leu-pNitroanilide. […] The temperature optimum for the proteolytic reaction was determined using succinyl-ala-ala-pro-phe-pNitroanilide in 10 mM Tris, 25 mM NaCl, pH 7.0.

proteins = assay: peptide mapping of the protease; type: biochemical; details: fragments generated during peptide mapping of the protease
azocasein = azocasein assay; type: biochemical; details: longer incubation times
Description: After washing the column with buffer, the dialysed protein sample was loaded onto the column. The protein was eluted using a linear gradient of 0.0 to 0.5M NaCl. The eluate's A280 was monitored and 8 ml fractions were collected. […] Following the incubation, the assay reaction was terminated by the addition of 200 μl of 10% trichloroacetic acid and incubation at room temperature for several minutes. The solutions were then neutralized by adding 200 μl 0.2N NaOH to each sample. Samples were centrifuged 2 min. The supernatants were removed and the activity of the fractions was determined from the increase in absorbance at 420 nm.

[2] = 20 mM additive, 2 min. at 65° C. at pH 7.5, 0.170 without additive

[Cl-].[Cl-].[Mg+2] [MgCl2]
Protease activity (dA/min) in presence of additive (Protease X; [2]): 0.250 dA/min
effect of additive on the protease's activity (Protease X; 65° C., pH 7.5): appears to enhance

[Ca+2].[Cl-].[Cl-] [CaCl2]
Protease activity (dA/min) in presence of additive (Protease X; 5 mM additive, 2 min. at 65° C. at pH 7.5, 0.170 without additive): 0.235 dA/min
Protease activity (dA/min) in presence of additive (Protease X; [2]): 0.251 dA/min
effect of additive on the protease's activity (Protease X; 65° C., pH 7.5): enhanced

O=C(O)CN(CCN(CC(=O)O)CC(=O)O)CC(=O)O [EDTA, reference compound]
Protease activity (dA/min) in presence of additive (Protease X; pH 7.5): 0.120 dA/min

O=S(=O)(F)Cc1ccccc1 [PMSF, reference compound]
Protease activity (dA/min) in presence of additive (Protease X; 1 mM additive, 2 min. at 65° C. at pH 7.5, 0.170 without additive): 0.000 dA/min
effect of additive on the protease reaction (Protease X; addition of PMSF, 65° C., pH 7.5): totally inhibited

B1: Protease X: novel protease [SEQ ID NO: 2] secreted into the culture medium by S. lividans (protein)
chain: MRITLPLLSTAVGLGLTAAVLGTGPAATAAAPQEPVRAAQLGYQPSAGSGEDAAANRAFFEAVVKSVAEKRAANPSAAAAVTVYYSATNAPSFRSQISRSAQIWNSSVSNVRLAESSSGADFAYYEGNDSRGSYASTDGHGSGYIFLDYRQNQQYDSTRVTAHETGHVLGLPDHYSGPCSELMSGGGPGPSCTNPYPNSTERSRVNQLWAYGFQAALDKALEKASQR
temperature optimum for cleavage of succinyl-ala-ala-pro-phe-pNitroanilide ([1]; 10 mM Tris, 25 mM NaCl, pH 7.0): 65 °C
time for which catalytic rate remains linear ([1]; 65° C.): at least 2 min
pH optimum ([1]; 65° C. reaction): 7.5 pH
thermal stability of the activity ([1]; 70° C., initial catalytic rate very fast, enzyme apparently becomes denatured): activity drops off dramatically
Activity (dA/min) ([1]; Temperature 30.000, 10 mM Tris, 25 mM NaCl, pH 7.0): 0.008 dA/min
Activity (dA/min) ([1]; Temperature 40.000, 10 mM Tris, 25 mM NaCl, pH 7.0): 0.017 dA/min
Activity (dA/min) ([1]; Temperature 50.000, 10 mM Tris, 25 mM NaCl, pH 7.0): 0.042 dA/min
Activity (dA/min) ([1]; Temperature 60.000, 10 mM Tris, 25 mM NaCl, pH 7.0): 0.074 dA/min
Activity (dA/min) ([1]; Temperature 65.000, 10 mM Tris, 25 mM NaCl, pH 7.0): 0.085 dA/min
Activity (dA/min) ([1]; Temperature 70.000, 10 mM Tris, 25 mM NaCl, pH 7.0): 0.047 dA/min
Activity (dA/min) ([1]; no additive, 2 min. at 65° C. at pH 7.5): 0.170 dA/min
proteolytic activity on substrate compared with control broth (pIJ699) ([1]; only substrate of four tested, 37° C. pH 7.0 and 65° C. pH 7 5, 10 mM calcium): showed activity above that of the control
Activity (dA/min) ([1]; pH 6.000, 65° C. reaction): 0.048 dA/min
Activity (dA/min) ([1]; pH 7.000, 65° C. reaction): 0.085 dA/min
Activity (dA/min) ([1]; pH 7.500, 65° C. reaction): 0.190 dA/min
Activity (dA/min) ([1]; pH 8.000, 65° C. reaction): 0.105 dA/min
cleavage site preference (proteins): preferentially processes proteins amino-terminally of tyrosine
temperature optimum in the azocasein assay (azocasein): 60 °C
